How the values were obtained:
Details in all cases: both partners purified
[1] = target: T1, CaM C-lobe (residues 79–148) (human, UniProt P0DP23 80-149); test: other fluorescence titration; competition: 12.5 nM D-CaM mixed with helix A (46.4 nM) or helix B (20.1 nM), isolated lobe added incrementally; no Ca2+; one site Hill fit, Kd derived assuming 1:1 binding
T1 construct: human calmodulin C-lobe, residues 79-148; cDNA from the group of Daniel L. Minor Jr; also called C-domain; CaM 79–148; source: produced as described previously [28], purified

[2] = target: T2, CaM N-lobe (residues 1–78) (human, UniProt P0DP23 2-79); test: as above
T2 construct: human calmodulin N-lobe, residues 1-78; cDNA from the group of Daniel L. Minor Jr; also called N-domain; CaM 1–78; source: produced as described previously [28], purified

[3] = target: T1, CaM C-lobe (residues 79–148); test: other fluorescence titration; competition: 12.5 nM D-CaM mixed with helix A (65.6 nM) or helix B (42.6 nM), isolated lobe added incrementally; with Ca2+; one site Hill fit, Kd derived assuming 1:1 binding
[4] = target: T2, CaM N-lobe (residues 1–78); test: as above
[5] = target: T3, dansylated calmodulin (rat, UniProt P0DP30 1-149, dansyl group covalently bound to CaM (position not given)); test: other fluorescence titration; 12.5 nM D-CaM, ligand added incrementally, enhancement of dansyl emission; 25 mM Tris-HCl, 120 mM KCl, 5 mM NaCl, 2 mM MgCl2, 10 mM EGTA, pH 7.4; no free Ca2+; apparent affinity (EC50 of a Hill fit)
T3 construct: calmodulin, rat brain, NM_017326; also called D-CaM; dansyl-CaM

[6] = target: T3, dansylated calmodulin; test: other fluorescence titration; 12.5 nM D-CaM, ligand added incrementally, enhancement of dansyl emission; D-CaM binding buffer with 3.9 µM free Ca2+ (9.63 mM Ca2+, 2 mM Mg2+, 10 mM EGTA, pH 7.4); apparent affinity (EC50 of a Hill fit)

- Kd [1]: 169 nM
- Kd [2]: 530 nM
- Kd [3]: 17 nM
- Kd [4]: 267 nM
- EC50 [5]: 46.4 nM
- EC50 [6]: 65.6 nM
B1: Kv7.2 helix A (hA residues G310–T359) (domain or fragment, human, UniProt O43526 310-359, looked up)
chain: GILGSGFALKVQEQHRQKHFEKRRNPAAGLIQSAWRFYATNLSRTDLHST
notes: helix A of human Kv7.2 (KCNQ2) Y15065, residues G310-T359; also called segment A; source: E. coli BL21-DE3, purified (GSH sepharose)

Reference: article PMC3904923, “Pivoting between Calmodulin Lobes Triggered by Calcium in the Kv7.2/Calmodulin Complex” (PLoS ONE, 2014)
